Measured values as given in US20150139990A1 (DAINIPPON SUMITOMO PHARMA, published 2015).

What was measured:
Test in all cases: ELISA
human CD81 mutant V135A = biological target: T1, human CD81 mutant V135A (human, UniProt P60033 1-236, limits assumed)
T1 construct: as m30; not shown: C-terminal V5 and 6xHis tags
T1 sequence: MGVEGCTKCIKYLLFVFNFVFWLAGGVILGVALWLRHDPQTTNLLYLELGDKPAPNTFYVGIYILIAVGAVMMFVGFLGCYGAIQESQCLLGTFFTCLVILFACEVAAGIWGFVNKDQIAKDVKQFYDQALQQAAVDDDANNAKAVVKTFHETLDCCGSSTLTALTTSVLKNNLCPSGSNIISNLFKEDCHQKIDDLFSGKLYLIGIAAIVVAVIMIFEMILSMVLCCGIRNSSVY

human CD81 mutant D137A = biological target: T2, human CD81 mutant D137A (human, UniProt P60033 1-236, limits assumed)
T2 construct: as m30; not shown: C-terminal V5 and 6xHis tags
T2 sequence: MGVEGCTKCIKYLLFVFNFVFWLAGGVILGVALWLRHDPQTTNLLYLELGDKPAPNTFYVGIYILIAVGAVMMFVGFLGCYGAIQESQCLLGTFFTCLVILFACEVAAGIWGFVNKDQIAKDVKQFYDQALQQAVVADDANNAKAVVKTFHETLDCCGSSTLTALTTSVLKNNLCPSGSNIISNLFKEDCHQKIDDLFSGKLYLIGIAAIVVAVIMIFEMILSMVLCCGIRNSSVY

human CD81 mutant H151A = biological target: T3, human CD81 mutant H151A (human, UniProt P60033 1-236, limits assumed)
T3 construct: as m30; not shown: C-terminal V5 and 6xHis tags
T3 sequence: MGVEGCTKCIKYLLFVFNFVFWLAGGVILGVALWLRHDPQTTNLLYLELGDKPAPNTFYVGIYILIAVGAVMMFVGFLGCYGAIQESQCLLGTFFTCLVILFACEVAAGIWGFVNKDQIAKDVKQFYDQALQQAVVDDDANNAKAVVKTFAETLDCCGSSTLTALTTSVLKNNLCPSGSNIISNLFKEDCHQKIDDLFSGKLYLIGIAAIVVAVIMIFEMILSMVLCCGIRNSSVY

human CD81 mutant G158S = biological target: T4, human CD81 mutant G158S (human, UniProt P60033 1-236, limits assumed)
T4 construct: as m30; not shown: C-terminal V5 and 6xHis tags
T4 sequence: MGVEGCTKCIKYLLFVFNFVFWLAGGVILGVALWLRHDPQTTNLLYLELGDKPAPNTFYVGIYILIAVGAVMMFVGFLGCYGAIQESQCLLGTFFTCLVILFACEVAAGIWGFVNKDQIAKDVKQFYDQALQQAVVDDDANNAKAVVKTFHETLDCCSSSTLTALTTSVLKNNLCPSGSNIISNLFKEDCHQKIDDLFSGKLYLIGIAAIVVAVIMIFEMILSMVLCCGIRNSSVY

human CD81 mutant A164T = biological target: T5, human CD81 mutant A164T (human, UniProt P60033 1-236, limits assumed)
T5 construct: as m30; not shown: C-terminal V5 and 6xHis tags
T5 sequence: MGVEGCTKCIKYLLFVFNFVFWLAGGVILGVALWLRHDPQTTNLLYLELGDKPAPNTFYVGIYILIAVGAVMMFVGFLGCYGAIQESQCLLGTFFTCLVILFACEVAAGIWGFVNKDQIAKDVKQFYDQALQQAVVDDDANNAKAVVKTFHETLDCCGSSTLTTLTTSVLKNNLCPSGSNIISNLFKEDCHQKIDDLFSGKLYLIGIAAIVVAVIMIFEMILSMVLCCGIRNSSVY

human CD81 mutant L165A = biological target: T6, human CD81 mutant L165A (human, UniProt P60033 1-236, limits assumed)
T6 construct: as m30; not shown: C-terminal V5 and 6xHis tags
T6 sequence: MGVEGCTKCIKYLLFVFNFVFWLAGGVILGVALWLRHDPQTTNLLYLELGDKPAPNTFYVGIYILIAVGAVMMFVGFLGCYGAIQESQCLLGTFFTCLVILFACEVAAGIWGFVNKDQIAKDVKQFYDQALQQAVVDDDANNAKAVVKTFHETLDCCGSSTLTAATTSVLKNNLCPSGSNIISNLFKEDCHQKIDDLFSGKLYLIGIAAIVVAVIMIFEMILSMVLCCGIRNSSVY

human CD81 mutant V169A = biological target: T7, human CD81 mutant V169A (human, UniProt P60033 1-236, limits assumed)
T7 construct: as m30; not shown: C-terminal V5 and 6xHis tags
T7 sequence: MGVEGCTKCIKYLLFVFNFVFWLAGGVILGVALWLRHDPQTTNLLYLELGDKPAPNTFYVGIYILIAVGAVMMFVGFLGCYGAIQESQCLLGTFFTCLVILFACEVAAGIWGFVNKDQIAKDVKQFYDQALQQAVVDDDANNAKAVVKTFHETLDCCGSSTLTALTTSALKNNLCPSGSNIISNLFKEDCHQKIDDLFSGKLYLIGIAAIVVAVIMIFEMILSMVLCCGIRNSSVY

human CD81 mutant L170A = biological target: T8, human CD81 mutant L170A (human, UniProt P60033 1-236, limits assumed)
T8 construct: as m30; not shown: C-terminal V5 and 6xHis tags
T8 sequence: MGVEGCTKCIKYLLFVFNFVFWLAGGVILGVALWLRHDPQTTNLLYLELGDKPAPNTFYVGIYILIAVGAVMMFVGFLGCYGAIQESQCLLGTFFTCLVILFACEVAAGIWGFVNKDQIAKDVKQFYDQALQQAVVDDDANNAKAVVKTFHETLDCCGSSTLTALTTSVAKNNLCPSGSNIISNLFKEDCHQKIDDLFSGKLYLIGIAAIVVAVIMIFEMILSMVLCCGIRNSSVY

human CD81 mutant Y127W = biological target: T9, human CD81 mutant Y127W (human, UniProt P60033 1-236, limits assumed)
T9 construct: as m30; not shown: C-terminal V5 and 6xHis tags
T9 sequence: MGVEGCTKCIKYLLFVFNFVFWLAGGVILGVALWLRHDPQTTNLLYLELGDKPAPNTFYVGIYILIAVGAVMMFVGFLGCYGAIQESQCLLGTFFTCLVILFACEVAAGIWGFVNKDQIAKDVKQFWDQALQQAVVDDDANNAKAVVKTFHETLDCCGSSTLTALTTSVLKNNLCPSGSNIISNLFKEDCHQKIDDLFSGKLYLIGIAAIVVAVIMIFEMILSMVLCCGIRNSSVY

Measured: relative binding affinity

B1: 002-A07 IgG4 antibody (antibody)
heavy: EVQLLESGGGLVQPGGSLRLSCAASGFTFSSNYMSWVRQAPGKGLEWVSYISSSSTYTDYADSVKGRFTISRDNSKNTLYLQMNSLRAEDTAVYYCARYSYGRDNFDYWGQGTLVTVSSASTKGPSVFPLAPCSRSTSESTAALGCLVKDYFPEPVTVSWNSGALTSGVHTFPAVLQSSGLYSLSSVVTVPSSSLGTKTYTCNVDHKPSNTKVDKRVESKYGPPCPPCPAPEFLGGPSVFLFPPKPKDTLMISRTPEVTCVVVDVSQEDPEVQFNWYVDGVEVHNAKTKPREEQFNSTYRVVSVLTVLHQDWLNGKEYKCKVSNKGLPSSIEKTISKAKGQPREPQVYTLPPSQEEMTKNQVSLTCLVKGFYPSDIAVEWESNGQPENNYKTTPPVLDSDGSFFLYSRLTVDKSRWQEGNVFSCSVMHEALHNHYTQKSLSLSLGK
light: QSVLTQPPSASGTPGQRVTISCTGSTSNIGAGYDTHWYQQLPGTAPKLLIYGNSNRPSGVPDRFSGSKSGTSASLAISGLRSEDEADYYCQSYDTNLSVWVFGGGTKLTVLGQPKAAPSVTLFPPSSEELQANKATLVCLISDFYPGAVTVAWKADSSPVKAGVETTTPSKQSNNKYAASSYLSLTPEQWKSHRSYSCQVTHEGSTVEKTVAPTECS
notes: human IgG4 S228P, lambda light chain
< 20%: human CD81 mutant V135A | human CD81 mutant D137A | human CD81 mutant H151A | human CD81 mutant G158S | human CD81 mutant A164T | human CD81 mutant L165A | human CD81 mutant V169A

B2: 003-D07 (antibody, human IgG4 S228P, lambda, V domains shown)
VH: EVQLLESGGGLVQPGGSLRLSCAASGFTFSSNYMSWVRQAPGKGLEWVSYISSSSTYTDYADSVKGRFTISRDNSKNTLYLQMNSLRAEDTAVYYCARYSYDRDNFDYWGQGTLVTVSS
VL: QSVLTQPFSASGTPGQRVTISCTGSTSNIGAGYDTHWYQHLPGTAPKLLIYGNSNRPSGVPDRFSGSKSGTSASLAISGLRSEDEADYYCQSYDTNLSVWVFGGGTKLTVLG
notes: IgG4 S228P
< 20%: human CD81 mutant V135A | human CD81 mutant D137A | human CD81 mutant G158S | human CD81 mutant A164T | human CD81 mutant L165A | human CD81 mutant V169A

B3: 002-A07 N113S (antibody, human IgG4 S228P, lambda, V domains shown)
VH: EVQLLESGGGLVQPGGSLRLSCAASGFTFSSNYMSWVRQAPGKGLEWVSYISSSSTYTDYADSVKGRFTISRDNSKNTLYLQMNSLRAEDTAVYYCARYSYGRDNFDYWGQGTLVTVSS
VL: QSVLTQPPSASGTPGQRVTISCTGSTSNIGAGYDTHWYQQLPGTAPKLLIYGNSNRPSGVPDRFSGSKSGTSASLAISGLRSEDEADYYCQSYDTSLSVWVFGGGTKLTVLG
notes: IgG4 S228P; glycosylation site mutant of 002-A07 VL
< 20%: human CD81 mutant V135A | human CD81 mutant D137A | human CD81 mutant H151A | human CD81 mutant G158S | human CD81 mutant A164T | human CD81 mutant L165A | human CD81 mutant V169A | human CD81 mutant L170A

B4: 002-A07 N113G (antibody, human IgG4 S228P, lambda, V domains shown)
VH: EVQLLESGGGLVQPGGSLRLSCAASGFTFSSNYMSWVRQAPGKGLEWVSYISSSSTYTDYADSVKGRFTISRDNSKNTLYLQMNSLRAEDTAVYYCARYSYGRDNFDYWGQGTLVTVSS
VL: QSVLTQPPSASGTPGQRVTISCTGSTSNIGAGYDTHWYQQLPGTAPKLLIYGNSNRPSGVPDRFSGSKSGTSASLAISGLRSEDEADYYCQSYDTGLSVWVFGGGTKLTVLG
notes: as for B3
< 20%: human CD81 mutant V135A | human CD81 mutant D137A | human CD81 mutant H151A | human CD81 mutant G158S | human CD81 mutant A164T | human CD81 mutant L165A | human CD81 mutant V169A | human CD81 mutant L170A

B5: 002-A07 N113Q (antibody, human IgG4 S228P, lambda, V domains shown)
VH: EVQLLESGGGLVQPGGSLRLSCAASGFTFSSNYMSWVRQAPGKGLEWVSYISSSSTYTDYADSVKGRFTISRDNSKNTLYLQMNSLRAEDTAVYYCARYSYGRDNFDYWGQGTLVTVSS
VL: QSVLTQPPSASGTPGQRVTISCTGSTSNIGAGYDTHWYQQLPGTAPKLLIYGNSNRPSGVPDRFSGSKSGTSASLAISGLRSEDEADYYCQSYDTQLSVWVFGGGTKLTVLG
notes: as for B3
< 20%: human CD81 mutant V135A | human CD81 mutant D137A | human CD81 mutant H151A | human CD81 mutant G158S | human CD81 mutant A164T | human CD81 mutant L165A | human CD81 mutant V169A

B6: 002-A07 S115A (antibody, human IgG4 S228P, lambda, V domains shown)
VH: EVQLLESGGGLVQPGGSLRLSCAASGFTFSSNYMSWVRQAPGKGLEWVSYISSSSTYTDYADSVKGRFTISRDNSKNTLYLQMNSLRAEDTAVYYCARYSYGRDNFDYWGQGTLVTVSS
VL: QSVLTQPPSASGTPGQRVTISCTGSTSNIGAGYDTHWYQQLPGTAPKLLIYGNSNRPSGVPDRFSGSKSGTSASLAISGLRSEDEADYYCQSYDTNLAVWVFGGGTKLTVLG
notes: as for B3
< 20%: human CD81 mutant V135A | human CD81 mutant D137A | human CD81 mutant H151A | human CD81 mutant G158S | human CD81 mutant A164T | human CD81 mutant L165A | human CD81 mutant V169A | human CD81 mutant L170A | human CD81 mutant Y127W

B7: 002-A07 S115G (antibody, human IgG4 S228P, lambda, V domains shown)
VH: EVQLLESGGGLVQPGGSLRLSCAASGFTFSSNYMSWVRQAPGKGLEWVSYISSSSTYTDYADSVKGRFTISRDNSKNTLYLQMNSLRAEDTAVYYCARYSYGRDNFDYWGQGTLVTVSS
VL: QSVLTQPPSASGTPGQRVTISCTGSTSNIGAGYDTHWYQQLPGTAPKLLIYGNSNRPSGVPDRFSGSKSGTSASLAISGLRSEDEADYYCQSYDTNLGVWVFGGGTKLTVLG
notes: as for B3
< 20%: human CD81 mutant V135A | human CD81 mutant D137A | human CD81 mutant G158S | human CD81 mutant A164T | human CD81 mutant L165A | human CD81 mutant V169A
